In the RNAGym collection of RNA variant scans (doi:10.1093/nar/gkz1192):

B1: CPEB3 Ribozyme (parent)
chain: UAACAGGGGGCCACAGCAGAAGCGUUCACGUCGCAGCCCCUGUCAGAUUCUGGUGAAUCUGCGAAUUCUGCUGUAUAUCUC

Variants of: B1
Assay: self-cleavage, relative activity (ratio to wild type); higher = more cleavage; in vitro, sequencing
Summary of the method: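 Libraries of CPEB3 self-cleaving ribozyme mutants came from rounds of error-prone PCR and carried barcodes, which DNA sequencing matched to variants. In vitro transcription used T7 RNA polymerase at 37°C for 5 hours, with a further 15 min in DNase I before EDTA stopped the reaction; the ribozymes cleaved during both steps. The RNA was reverse transcribed with template switching and sequenced on Illumina. Relative activity is the cleaved/total read fraction of a variant divided by that of the unmutated ribozyme, averaged over three batches with at least 5 reads.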
Work on G10A A20U yielded a self-cleavage of 0.23. G10A A20C showed a self-cleavage of 0.22. For G10A A20G, the self-cleavage was 0.3. In the case of G9U C37U, the self-cleavage is reported as 0.07. In the case of G10U U54C, the self-cleavage is reported as 0.34. Variant G9U A20G has a self-cleavage of 0.34. G10C G33A gave a self-cleavage of 0.16. Variant G10A G36A has a self-cleavage of 0.26. G10U U43C gave a self-cleavage of 0.34. With G10C U72A the self-cleavage was 0.14. Work on G10A C40U yielded a self-cleavage of 0.15. G10A C40A gave a self-cleavage of 0.19. G10C A64U gave a self-cleavage of 0.15. G10C A64G showed a self-cleavage of 0.25. With G10C G52A the self-cleavage was 0.2. G9U G52U gave a self-cleavage of 0.18. Work on G10A A65U yielded a self-cleavage of 0.14. G10A A65G gave a self-cleavage of 0.12. For G10A A65C, the self-cleavage was 0.09. For G10C G16A, the self-cleavage was 0.12. Variant G10A C29U has a self-cleavage of 0.13. G10A A77G showed a self-cleavage of 0.08. For G10A A77U, the self-cleavage was 0.04. Variant G10C A57G has a self-cleavage of 0.21. For G9U C59U, the self-cleavage was 0.06. In the case of G10U U41A, the self-cleavage is reported as 0.22. For G10A G55A, the self-cleavage was 0.36. With G10A G55U the self-cleavage was 0.07. With G10A G33A the self-cleavage was 0.19. Work on G9U A75U yielded a self-cleavage of 0.17. G9U A75G gave a self-cleavage of 0.13. In the case of G10A A18G, the self-cleavage is reported as 0.23. For G10A A18C, the self-cleavage was 0.35. G10A A18U gave a self-cleavage of 0.15. Work on G9U C29U yielded a self-cleavage of 0.13. Variant G10A C32U has a self-cleavage of 0.19. Work on G10A C32A yielded a self-cleavage of 0.06. Work on G10C U60A yielded a self-cleavage of 0.12. For G9U G63A, the self-cleavage was 0.08. For G10C U69A, the self-cleavage was 0.3. With G10C U69G the self-cleavage was 0.16. Variant G10C U69C has a self-cleavage of 0.12. G10C C11A gave a self-cleavage of 0.33. With G10U U26C the self-cleavage was 0.28. G10U U26A showed a self-cleavage of 0.32. C11A A35U showed a self-cleavage of 0.1. With C11A A35G the self-cleavage was 0.46. With G10A G42U the self-cleavage was 0.38. G10A G42C showed a self-cleavage of 0.16. Work on G10C U51C yielded a self-cleavage of 0.22. Variant G10U U66A has a self-cleavage of 0.18. Work on G9U U78A yielded a self-cleavage of 0.27. G9U U78C showed a self-cleavage of 0.2. For G10C C71A, the self-cleavage was 0.12. Work on G10U A28G yielded a self-cleavage of 0.17. In the case of G10A U48C, the self-cleavage is reported as 0.2. C11A gave a self-cleavage of 0.37. In the case of G9U A56C, the self-cleavage is reported as 0.29. Work on G9U A56U yielded a self-cleavage of 0.29. Variant G9U A56G has a self-cleavage of 0.14. Variant G10C G53A has a self-cleavage of 0.26. G10U A21G gave a self-cleavage of 0.08. For G10U A21C, the self-cleavage was 0.06. Work on G10A G53A yielded a self-cleavage of 0.29. Work on G10A G53C yielded a self-cleavage of 0.33. Variant G10C A65G has a self-cleavage of 0.33. G10A U41C showed a self-cleavage of 0.31. G10A U41A gave a self-cleavage of 0.29. For G10A U41G, the self-cleavage was 0.38. G9U A35U showed a self-cleavage of 0.14. Work on G9U A35C yielded a self-cleavage of 0.14. In the case of G9U A35G, the self-cleavage is reported as 0.33. In the case of C11A A18G, the self-cleavage is reported as 0.28. C11A A18C showed a self-cleavage of 0.4. Variant C11A A18U has a self-cleavage of 0.43. Work on G9U C38A yielded a self-cleavage of 1.09. Variant C11A A47U has a self-cleavage of 0.27. For C11A A47G, the self-cleavage was 0.51. G10C U66A showed a self-cleavage of 0.2. For G10C U66C, the self-cleavage was 0.15. Variant G10U A77U has a self-cleavage of 0.07. Variant G10U A77G has a self-cleavage of 0.35. Work on G9U C62U yielded a self-cleavage of 0.13. G9U U41C showed a self-cleavage of 0.32. G9U U41A gave a self-cleavage of 0.15. In the case of G10A A64C, the self-cleavage is reported as 0.18. Variant G10A A64G has a self-cleavage of 0.24. With G10A A64U the self-cleavage was 0.15. G10C U80C showed a self-cleavage of 0.31. G10U A35U gave a self-cleavage of 0.05. In the case of G10U A35G, the self-cleavage is reported as 0.32. Variant G10A C34U has a self-cleavage of 0.05. For G10U U58C, the self-cleavage was 0.34. With G10C G24U the self-cleavage was 0.15. G9U U51A showed a self-cleavage of 0.14. Variant G9U U51C has a self-cleavage of 0.17. With G9U A21G the self-cleavage was 0.22. For G10A U60C, the self-cleavage was 0.2. G10A U60A gave a self-cleavage of 0.14. Work on G10A U60G yielded a self-cleavage of 0.06. G10U A45C gave a self-cleavage of 0.14. Work on G10A U80A yielded a self-cleavage of 0.06. For G10A U80C, the self-cleavage was 0.25. Work on G10A U80G yielded a self-cleavage of 0.25. Variant G9U U25C has a self-cleavage of 0.14. Work on G10U A20G yielded a self-cleavage of 0.36. In the case of G10C A47U, the self-cleavage is reported as 0.15. G10U A13U showed a self-cleavage of 0.1. Work on G10U A13G yielded a self-cleavage of 0.11. For G10A U76C, the self-cleavage was 0.33. G10A U76A gave a self-cleavage of 0.23. G10C A21G gave a self-cleavage of 0.18. For G10U U80C, the self-cleavage was 0.23. G10U U72C gave a self-cleavage of 0.22. For G10C U74A, the self-cleavage was 0.26. In the case of G10C U74G, the self-cleavage is reported as 0.26. Variant G10C A75G has a self-cleavage of 0.24. With G10A A47G the self-cleavage was 0.12. Variant G10A C81G has a self-cleavage of 0.3. Work on G10C U41A yielded a self-cleavage of 0.33. Variant G10C U41C has a self-cleavage of 0.1. Variant C11A A57G has a self-cleavage of 0.33. With G10U C40U the self-cleavage was 0.06. Variant G10A has a self-cleavage of 0.26. Variant G10C has a self-cleavage of 0.25. G10U gave a self-cleavage of 0.23. Work on G9U A13G yielded a self-cleavage of 0.24. Work on G10C A35G yielded a self-cleavage of 0.28. C11A A21G gave a self-cleavage of 0.24. G10U U69A gave a self-cleavage of 0.18. G10U U69C gave a self-cleavage of 0.07. With G10U U51C the self-cleavage was 0.4. With G10C A56G the self-cleavage was 0.15. Variant G10A U25A has a self-cleavage of 0.26. With G10A U25G the self-cleavage was 0.14. Work on G10A U25C yielded a self-cleavage of 0.23. With G9U U58C the self-cleavage was 0.14. With G10A A21G the self-cleavage was 0.24. For G10A A21C, the self-cleavage was 0.15. G10A A21U showed a self-cleavage of 0.13. G10A U43C gave a self-cleavage of 0.06. In the case of G10A U43G, the self-cleavage is reported as 0.19. G10A U43A gave a self-cleavage of 0.28. In the case of C11A A64G, the self-cleavage is reported as 0.21. Work on G10C U49G yielded a self-cleavage of 0.17. For G10C U49A, the self-cleavage was 0.2. For G10C U49C, the self-cleavage was 0.22. G10C C27U gave a self-cleavage of 0.15. For G10C C12U, the self-cleavage was 0.1. Variant G10C C12A has a self-cleavage of 0.44. For G9U G53U, the self-cleavage was 0.36. Variant G10U U74C has a self-cleavage of 0.46. Variant G9U A47G has a self-cleavage of 0.29. With G9U U74C the self-cleavage was 0.32. With G10A A35U the self-cleavage was 0.11. For G10A A35G, the self-cleavage was 0.55. With G10U A56U the self-cleavage was 0.08. G10U A56G showed a self-cleavage of 0.16. G9U U54A gave a self-cleavage of 0.08. Variant G9U U54C has a self-cleavage of 0.1. For G10A C39A, the self-cleavage was 0.37. With C11A A56G the self-cleavage was 0.34. C11A A56U gave a self-cleavage of 0.12. For G9U C81U, the self-cleavage was 0.27. With G10U A47G the self-cleavage was 0.21. With G10A A75G the self-cleavage was 0.19. For G10U C50U, the self-cleavage was 0.17.
